Measurements taken from patent US20110256132A1 (published 2011).
Residue numbers refer to the chain shown, from its start. Numbers in names are those of the source. Where two headings read alike, the source gives them in different places. Values belong to the binder of their own block, whether it stands above or below them.

Tests used:
[1] = molecular target: T1, mature myostatin (recombinant, dimeric) (mouse polyprotein used for in-house …, UniProt O08689 268-376); test: cell-based or functional assay
T1 sequence: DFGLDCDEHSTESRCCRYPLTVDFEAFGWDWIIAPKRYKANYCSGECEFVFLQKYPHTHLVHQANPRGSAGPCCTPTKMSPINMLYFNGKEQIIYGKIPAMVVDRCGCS

[2] = molecular target: T1, mature myostatin (recombinant, dimeric); test: cell-based or functional assay; remark: listed apart in the source
[3] = molecular target: T1, mature myostatin (recombinant, dimeric); test: BIAcore, low density myostatin surface, methods as in 4.3
[4] = molecular target: T1, mature myostatin (recombinant, dimeric); test: BIAcore, low density myostatin surface, antibody analyte, 1:1 model
Protocol: (§1) Purified H0L0, H1L2 and H2L2 bound recombinant myostatin by BIAcore™ Recombinant myostatin was immobilised at three different densities (low, medium and high, to give R-max values of approximately 35, 120 and 350 RU's respectively) onto a BIAcore™ chip. Antibodies were passed over at 256, 64, 16, 4 and 1 nM. 0 nM antibody was used for double referencing and data was fitted to the 1:1 model.

[5] = molecular target: T1, mature myostatin (recombinant, dimeric); test: BIAcore, high density myostatin surface, antibody analyte, 1:1 model (poor fits)
Protocol: as §1

[6] = molecular target: T1, mature myostatin (recombinant, dimeric); test: BIAcore, medium density myostatin surface, antibody analyte, 1:1 model (poor fits)
Protocol: as §1

[7] = molecular target: T1, mature myostatin (recombinant, dimeric); test: myostatin binding ELISA with purified antibody, 10 ng/well recombinant myostatin coated, anti-human kappa HRP, A490 (Examples 4.1, 4.2)
Protocol: (§2) The myostatin binding ELISA was carried out approximately according to this protocol. A 96-well ELISA plate was coated at 4° C. overnight with 10 ng/well recombinant myostatin. This plate was then washed 3-times in wash buffer (PBS, 0.1% Tween-20). The wells were blocked for 1 hour at room temperature with block solution (PBS, 0.1% Tween-20+1% bovine serum albumin [BSA]), before washing 3-times in wash buffer. Antibodies were then titrated out to a suitable concentration range (approximately 100 to 0.001 μg/ml), added to the plate and incubated for 1 hour at room temperature. The plate was then washed 3-times in wash buffer. An anti-mouse IgG HRP-conjugated antibody (P0260 by Dako, this reagent was used according to the manufacturer's instructions) was used to detect binding of mouse antibodies, such as 10B3. An anti-human kappa light chain HRP-conjugated antibody (A7164 by Sigma Aldridge, this reagent was used according to the manufacturer's instructions) was used to detect binding of humanized or chimeric antibodies, such as 10B3 chimera or H0L0. The plate was then washed 3-times in wash buffer and developed with an OPD substrate (from Sigma, used according to the manufacturer's instructions) and read at 490 nm on a plate reader.

[8] = molecular target: T1, mature myostatin (recombinant, dimeric); test: myostatin binding ELISA with purified antibody, 10 ng/well recombinant myostatin coated, anti-human kappa HRP, A490 (Examples 4.1, 4.2); the text says the CHOK1 material was hard to quantify
Protocol: as §2

[9] = molecular target: T1, mature myostatin (recombinant, dimeric); test: cell-based or functional assay; remark: listed apart in the source
[10] = molecular target: T1, mature myostatin (recombinant, dimeric); test: cell-based or functional assay; remark: listed apart in the source
[11] = molecular target: T1, mature myostatin (recombinant, dimeric); test: ActRIIb receptor binding assay (Example 2.5), mean IC50
Protocol: Recombinant soluble ActRIIb (R&D Systems 339-RBB) was coated in wells of an ELISA plate at 1 μg/ml in carbonate buffer overnight at 4° C. Plates were blocked (see Block solution above at 2.3) and washed following standard ELISA protocols. In parallel, 2 nM biotinylated myostatin (in-house, as described in 1.1, biotinylated material) was pre-incubated with an antibody dilution series consisting of 10B3, 10B3C, and a negative control (IgG1 isotype control) for 2 hours at 37° C. The biotinylated myostatin:antibody reactions were then added to the ActRIIb coated plate for 1 hour at 37° C. Standard wash procedures were followed prior to addition of 1:1000 diluted streptavidin-HRP conjugate (Dako P0397) and a further 37° C. incubation for 1 hour. Plates were again washed and assayed at absorbance 490 nm following OPD substrate (Sigma) and acid stop solution treatment Inhibition curves and IC50 values for the inhibition of myostatin activity are shown in FIG. 5 and Table 8 respectively.
H2L2 C91S_G55S F100G_Y, the developability enhanced molecule with the highest apparent potency in the A204 assay was Fc-disabled (by making the following substitutions, using EU numbering system: Leu 235 Ala; and Gly 237 Ala) as exemplified in SEQ ID NO: 99.

[12] = molecular target: T1, mature myostatin (recombinant, dimeric); test: myostatin capture ELISA: plate coated with polyclonal anti-myostatin AF788, myostatin 1 µg/ml captured, purified antibody titrated, anti-human kappa HRP, A490 (Example 6.7)
Protocol: A 96-well ELISA plate was coated at 4° C. overnight with 2.5 μg/ml polyclonal Antibody to Myostatin (R&D Systems AF788). This plate was then washed 3-times in wash buffer (PBS, 0.1% Tween-20) and blocked for 1 hour at room temperature with block solution (PBS, 0.1% Tween-20+1% bovine serum albumin [BSA]). Then, myostatin was added at 1 μg/ml in block buffer during 1 hour followed by 3-times in wash buffer. Antibodies were then titrated out to a suitable concentration range (approximately 10 to 0.01 μg/ml), added to the plate and incubated for 1 hour at room temperature. The plate was then washed 3-times in wash buffer. An anti-human kappa light chain HRP-conjugated antibody (Sigma A7164, used according to the manufacturer's instructions) was used to detect binding of humanized or chimeric antibodies, such as 10B3 chimera (HcLc) or H0L0. The plate was then washed 3-times in wash buffer and developed with an OPD substrate (according to the manufacturer's instructions) and read at 490 nm on a plate reader.
The experiment is illustrated in FIG. 21 where H2L2-C91S, H0L0, HcLc (10B3 chimera) and a negative control monoclonal antibody were used as control antibodies. All eleven CDRH3 variant antibodies bound to recombinant myostatin in this ELISA. […]

[13] = molecular target: T1, mature myostatin (recombinant, dimeric); test: myostatin binding ELISA, 10 ng/well recombinant myostatin coated, CHOK1 supernatants, anti-human kappa HRP, A490 (Examples 5.1, 4.2)
[14] = molecular target: T1, mature myostatin (recombinant, dimeric); test: myostatin binding ELISA after 48 h at 37 C in PBS (Examples 5.2, 4.2), A490
[15] = molecular target: T1, mature myostatin (recombinant, dimeric); test: myostatin binding ELISA after 48 h at 37 C in 1% ammonium bicarbonate pH 9.0 (Examples 5.2, 4.2), A490
[16] = molecular target: T1, mature myostatin (recombinant, dimeric); test: myostatin binding ELISA, CHOK1 supernatants
Protocol: as §2, with “An anti-human kappa light chain HRP-conjugated antibody (A7164 by Sigma Aldridge, this reagent was used according to the manufacturer's instructions) was used to detect binding of humanized or chimeric antibodies, such as 10B3 chimera or H0L0.” left out
The plasmids for each antibody were transfected into CHOK1 cells in duplicate and in two separate experiments. Antibodies produced in the CHOK1 cell supernatant were analysed for activity in the myostatin binding ELISA. […]

B1: H0L0 (antibody, human IgG1, kappa)
heavy: not shown
light: DIQMTQSPSSLSASVGDRVTITCKASQDINSYLSWFQQKPGKAPKSLIYRANRLVDGVPSKFSGSGSGTDFTLTISSLQPEDFATYYCLQCDEFPLTFGQGTKLEIKRTVAAPSVFIFPPSDEQLKSGTASVVCLLNNFYPREAKVQWKVDNALQSGNSQESVTEQDSKDSTYSLSSTLTLSKADYEKHKVYACEVTHQGLSSPVTKSFNRGEC
notes: Humanised, human IgG1 wild type/kappa
Mean IC50, A204 in vitro activity assay [1]: 10.2 nM
Mean IC50, A204 in vitro activity assay [2]: 10.1 nM
Kd [3]: 22.7 nM
Kd [4]: 8.26 nM
koff [4]: 0.00662 s⁻¹
kon [4]: 801000 M⁻¹ s⁻¹
Kd [5]: 2.31 nM
koff [5]: 0.000338 s⁻¹
kon [5]: 146000 M⁻¹ s⁻¹
Kd [6]: 3.61 nM
koff [6]: 0.00093 s⁻¹
kon [6]: 258000 M⁻¹ s⁻¹
EC50 (read off the curve) [7]: ~0.1 mg/L
EC50 (read off the curve) [8]: ~0.3 mg/L

B3: H2L2 C91S_G55S F100G_Y (antibody)
chain 1: not shown
chain 2: B1 light with F71Y, C91S
Mean IC50, A204 in vitro activity assay [10]: 4.42 nM
IC50 [11]: 0.786 nM

B4: H2L2-C91S_W100E_F (antibody, human IgG1, kappa, V domains shown)
VH: QVQLVQSGAEVKKPGASVKVSCKASGYSFTGYFMHWVRQAPGQGLEWMGNIYPYNGVSNYNQRFKARVTMTTDTSTSTAYMELRSLRSDDTAVYYCARRYYYGTGPADFYFDVWGQGTLVTVSS
VL: DIQMTQSPSSLSASVGDRVTITCKASQDINSYLSWFQQKPGKAPKSLIYRANRLVDGVPSKFSGSGSGTDYTLTISSLQPEDFATYYCLQSDEFPLTFGQGTKLEIKR
binding result [12]: binds

B6: H2L2 N54D & C91S (H2L2-N54D-C91S) (antibody, human IgG1, kappa, V domains shown)
VH: B4 VH with N55D, F109W
VL: B4 VL
binding result [13]: no binding

B7: H2L2-C91S_F100G_N (antibody, human IgG1, kappa, V domains shown)
VH: B4 VH with F109W, F111N
VL: B4 VL
binding result [12]: binds

B8: H2L2 N54D (H2L2-N54D) (antibody, human IgG1, kappa, V domains shown)
VH: B4 VH with N55D, F109W
VL: B4 VL with S91C
binding result [13]: no binding (tested: about 33 nM)

B10: 10B3 chimera N54D (HCLC-N54D) (antibody, human IgG1, kappa, V domains shown)
VH: EVQLQQSGPELVKPGASVKISCKASGYSFTGYFMHWVKQSHGNILDWIGNIYPYDGVSNYNQRFKAKATLTVDKSSSTAYMELRSLTSEDSAVYYCARRYYYGTGPADWYFDVWGTGTLVTVSS
VL: DIKMTQSPSSMYASLRERVTITCKASQDINSYLSWFQQKPGKSPKTLIYRANRLVDGVPSRFSGSGSGQDYSLTISSLEYEDMGIYYCLQCDEFPLTFGAGTKLELKR
binding result [16]: no binding

The remaining lines, values ahead:

Mean IC50, A204 in vitro activity assay [9]: 1.24 nM
B2: H2L2-C91S_F100G_Y Fc Disabled (antibody, human IgG1, kappa)
heavy: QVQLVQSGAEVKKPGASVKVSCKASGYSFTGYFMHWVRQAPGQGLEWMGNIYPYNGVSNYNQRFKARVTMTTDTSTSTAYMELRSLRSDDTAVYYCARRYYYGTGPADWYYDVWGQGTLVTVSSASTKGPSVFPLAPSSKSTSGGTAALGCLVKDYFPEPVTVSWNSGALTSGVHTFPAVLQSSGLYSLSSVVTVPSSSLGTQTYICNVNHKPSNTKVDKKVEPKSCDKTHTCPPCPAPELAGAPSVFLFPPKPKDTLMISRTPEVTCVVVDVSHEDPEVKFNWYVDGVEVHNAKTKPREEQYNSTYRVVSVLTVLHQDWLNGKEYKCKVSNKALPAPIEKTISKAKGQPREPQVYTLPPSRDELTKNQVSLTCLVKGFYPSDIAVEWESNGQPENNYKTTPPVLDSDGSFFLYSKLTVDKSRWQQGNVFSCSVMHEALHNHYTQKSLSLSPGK
light: B1 light with F71Y, C91S

IC50 [11]: 0.518 nM
B5: H2L2 C91S_G55S F100G_Y-Fc disabled (antibody, human IgG1, kappa)
heavy: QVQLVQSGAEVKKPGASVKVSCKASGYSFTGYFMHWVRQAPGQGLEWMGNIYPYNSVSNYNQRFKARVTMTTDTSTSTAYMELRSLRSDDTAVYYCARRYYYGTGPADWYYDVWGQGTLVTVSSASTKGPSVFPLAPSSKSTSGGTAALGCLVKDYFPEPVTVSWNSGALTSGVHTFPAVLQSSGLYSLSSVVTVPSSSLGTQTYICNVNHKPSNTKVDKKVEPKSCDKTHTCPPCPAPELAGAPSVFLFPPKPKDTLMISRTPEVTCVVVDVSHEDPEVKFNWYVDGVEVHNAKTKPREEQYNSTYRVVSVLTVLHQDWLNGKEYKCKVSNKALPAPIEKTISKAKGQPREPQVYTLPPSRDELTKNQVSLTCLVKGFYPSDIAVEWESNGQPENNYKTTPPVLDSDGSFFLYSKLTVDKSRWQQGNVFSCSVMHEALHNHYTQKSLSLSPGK
light: B1 light with F71Y, C91S

Mean IC50, A204 in vitro activity assay [1]: 8.6 nM
Mean IC50, A204 in vitro activity assay [2]: 10.1 nM
Kd [3]: 12 nM
Kd [4]: 8.37 nM
koff [4]: 0.00268 s⁻¹
kon [4]: 321000 M⁻¹ s⁻¹
Kd [5]: 1.47 nM
koff [5]: 0.000216 s⁻¹
kon [5]: 147000 M⁻¹ s⁻¹
Kd [6]: 3 nM
koff [6]: 0.000737 s⁻¹
kon [6]: 246000 M⁻¹ s⁻¹
EC50 (read off the curve) [14]: ~0.7 nM
EC50 (read off the curve) [15]: ~0.6 nM
EC50 (read off the curve) [7]: ~0.09 mg/L
EC50 (read off the curve) [8]: ~0.1 mg/L
B9: H2L2 (antibody, human IgG1, kappa, V domains shown)
VH: B4 VH with F109W
VL: B4 VL with S91C
notes: as for B1

binding result [16]: no binding
B11: 10B3 chimera N54D & C91S (HCLC-N54D-C91S) (antibody, human IgG1, kappa, V domains shown)
VH: B10 VH
VL: B10 VL with C91S
